{"source": "paper PMC10416611", "about": "“Overexpression of AHL proteins enhances root hair production by altering the transcription of RHD6‐downstream genes”", "binders": {"B1": {"name": "PRP3 promoter probe (dsDNA)", "DNA 1": "GTCCAAATATTTATATTATAAGATACATTTTAATATTTAATTATGATTTAGTAGA", "DNA 2": "TCTACTAAATCATAATTAAATATTAAAATGTATCTTATAATATAAATATTTGGAC"}, "B2": {"name": "COW1 promoter probe (dsDNA)", "DNA 1": "TTTCTCTCATATTTAATTTATTTACTTAGAAA", "DNA 2": "TTTCTAAGTAAATAAATTAAATATGAGAGAAA"}}, "key": {"MBP-AHL17-His": {"target": "MBP-AHL17-His (Arabidopsis thaliana, UniProt Q9LTA2 1-276)", "assay": "EMSA; reduced by unlabeled probe; EMSA as in Sun et al. 2016; buffer, salt, pH and temperature not given; FAM-labeled probe 1 uM (Fig. S6)", "details": "protein: recombinant; tags: N-terminal MBP; C-terminal 6xHis; label: FAM; blunt"}, "MBP-AHL28": {"target": "T1, MBP-AHL28 (Arabidopsis thaliana, UniProt Q9M9R4 1-206)", "T1 sequence": "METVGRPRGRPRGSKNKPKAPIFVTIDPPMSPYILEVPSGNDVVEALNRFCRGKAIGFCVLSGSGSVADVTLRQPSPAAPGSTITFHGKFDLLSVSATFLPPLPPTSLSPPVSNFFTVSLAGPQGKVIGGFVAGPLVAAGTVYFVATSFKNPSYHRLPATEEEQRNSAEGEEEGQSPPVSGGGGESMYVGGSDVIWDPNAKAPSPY", "assay": "EMSA; 1.5 ug protein, 1 uM probe; reduced by unlabeled probe; EMSA as in Sun et al. 2016; buffer, salt, pH and temperature not given; FAM-labeled probe 1 uM (Fig. S6)", "details": "protein: recombinant; tags: N-terminal MBP; label: FAM; blunt"}}, "data": [{"binder": "B1", "values": [{"measurement": "binding result", "setting": "MBP-AHL17-His", "value": "binds"}, {"measurement": "binding result", "setting": "MBP-AHL28", "value": "binds"}]}, {"binder": "B2", "values": [{"measurement": "binding result", "setting": "MBP-AHL17-His", "value": "binds"}, {"measurement": "binding result", "setting": "MBP-AHL28", "value": "binds"}]}]}
